The values below come from article PMC12529927, “Functional microRNA targeting without seed pairing”.

The target of series [1] is T1, AGO2 (loaded with guide RNA) (Homo sapiens, UniProt Q9UKV8 1-859). In words: filter binding; no boost over m9_22; 18 mM HEPES pH 7.4, 100 mM K-acetate, 1 mM Mg-acetate, 0.01% IGEPAL, 0.01 mg/mL yeast tRNA, 5 mM DTT, BSA, glycerol, 37 C, 4 h, 1-5 pM target; kinetics with 10. As to conditions: protein: recombinant, tags: 3xFLAG-SUMOEu1 (removed by SENPEuB cleavage), label: 32P target, offset +3.

Series [2] deals with T1, AGO2 (loaded with guide RNA). The series is described as follows: filter binding; modest boost over m9_22; 18 mM HEPES pH 7.4, 100 mM K-acetate, 1 mM Mg-acetate, 0.01% IGEPAL, 0.01 mg/mL yeast tRNA, 5 mM DTT, BSA, glycerol, 37 C, 4 h, 1-5 pM target; kinetics with 10. Particulars: protein: recombinant, tags: 3xFLAG-SUMOEu1 (removed by SENPEuB cleavage), label: 32P target, offset +3.

Series [3] has the same target. The series is described as follows: filter binding; modest boost over m11_23; 18 mM HEPES pH 7.4, 100 mM K-acetate, 1 mM Mg-acetate, 0.01% IGEPAL, 0.01 mg/mL yeast tRNA, 5 mM DTT, BSA, glycerol, 37 C, 4 h, 1-5 pM target; kinetics with 10. As to conditions: protein: recombinant, tags: 3xFLAG-SUMOEu1 (removed by SENPEuB cleavage), label: 32P target, offset +2.
The target is the same in series [4]. In words: filter binding; length-matched; slightly weaker than m2_6; 18 mM HEPES pH 7.4, 100 mM K-acetate, 1 mM Mg-acetate, 0.01% IGEPAL, 0.01 mg/mL yeast tRNA, 5 mM DTT, BSA, glycerol, 37 C, 4 h, 1-5 pM target; kinetics with 10. As to conditions: protein: recombinant; tags: 3xFLAG-SUMOEu1 (removed by SENPEuB cleavage); label: 32P target; g11-23 and g2-5 paired, offset +2.

T1 sequence (Q9UKV8 whole entry): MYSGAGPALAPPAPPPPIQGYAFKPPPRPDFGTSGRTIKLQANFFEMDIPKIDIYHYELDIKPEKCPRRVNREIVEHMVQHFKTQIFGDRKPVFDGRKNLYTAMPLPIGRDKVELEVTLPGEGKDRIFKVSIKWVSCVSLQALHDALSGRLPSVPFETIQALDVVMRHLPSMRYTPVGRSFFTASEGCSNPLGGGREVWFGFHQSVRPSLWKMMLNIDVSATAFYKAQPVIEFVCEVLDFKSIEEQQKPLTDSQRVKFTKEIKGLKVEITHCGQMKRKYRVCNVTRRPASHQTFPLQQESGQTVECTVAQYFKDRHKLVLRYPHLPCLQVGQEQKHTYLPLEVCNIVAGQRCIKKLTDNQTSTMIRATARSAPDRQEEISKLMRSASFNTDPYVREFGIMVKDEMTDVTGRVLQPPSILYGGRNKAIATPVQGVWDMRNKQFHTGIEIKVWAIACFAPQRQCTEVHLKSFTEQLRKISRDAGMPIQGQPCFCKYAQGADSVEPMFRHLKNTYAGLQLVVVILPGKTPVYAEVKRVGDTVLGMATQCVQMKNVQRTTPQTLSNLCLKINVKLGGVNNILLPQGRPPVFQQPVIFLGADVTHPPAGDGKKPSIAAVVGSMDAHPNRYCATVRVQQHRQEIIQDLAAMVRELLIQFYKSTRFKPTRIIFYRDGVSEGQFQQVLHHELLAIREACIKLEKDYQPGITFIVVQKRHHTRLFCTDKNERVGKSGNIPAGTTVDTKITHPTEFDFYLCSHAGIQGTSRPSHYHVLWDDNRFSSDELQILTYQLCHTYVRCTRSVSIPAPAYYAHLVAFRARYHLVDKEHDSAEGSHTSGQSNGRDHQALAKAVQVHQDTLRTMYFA

B1: miR-124 mut / m9_22|+3|m2 (mixed)
RNA 1: UCUGGCUCGCGGUGAAUGCCAA
RNA 2: UUUUUUGGCAUUCACCGCUUUUUUUUUGUUUU
modifications: 5'-phosphate guide
Turning to B1, in series [1] (g9-22 and g2 paired), the binding result is given as “binds”.

B2: miR-124 mut / m9_22|+3|m2_3 (mixed)
RNA 1: UCUGGCUCGCGGUGAAUGCCAA
RNA 2: UUUUUUGGCAUUCACCGCUUUUUUUUAGUUUU
modifications: 5'-phosphate guide
For the molecule B2, in series [1] (g9-22 and g2-3 paired), the binding result is listed as “binds”.

B3: miR-124 mut / m9_22|+3|m2_5 (mixed)
RNA 1: UCUGGCUCGCGGUGAAUGCCAA
RNA 2: UUUUUUGGCAUUCACCGCUUUUUUCCAGUUUU
modifications: 5'-phosphate guide
For B3, in series [2] (g9-22 and g2-5 paired), the binding result is on record as “binds”.

B4: miR-124 mut / m9_22|+3|m2_4 (mixed)
RNA 1: UCUGGCUCGCGGUGAAUGCCAA
RNA 2: UUUUUUGGCAUUCACCGCUUUUUUUCAGUUUU
modifications: 5'-phosphate guide
In the case of B4, the binding result in series [2] (g9-22 and g2-4 paired) was “binds”.

B5: miR-155 mut / m11_23|+2|m2_6 (mixed)
RNA 1: UUCGUGCUAAUCGUGAUAGGGGU
RNA 2: UUUUACCCCUAUCACGACCUUUUCACGAUUUU
modifications: 5'-phosphate guide
Take B5: the binding result in series [3] (g11-23 and g2-6 paired) is reported as “binds”.

B6: miR-155 mut / m11_23|+2|m2_5 (repeat) (mixed)
RNA 1: UUCGUGCUAAUCGUGAUAGGGGU
RNA 2: UUUUACCCCUAUCACGACCUUUUUACGAUUUU
modifications: 5'-phosphate guide
B6: the binding result in series [4] is “binds”.

B7: miR-155 mut / m11_23|+2|m2_5 (mixed)
RNA 1: UUCGUGCUAAUCGUGAUAGGGGU
RNA 2: UUUUUUACCCCUAUCACGACCUUUUUACGAUUUUUUUUUUUUUU
modifications: 5'-phosphate guide
Take B7: the binding result in series [3] (g11-23 and g2-5 paired) is “binds”.
